Measured values as given in publication PMC5667550 (SLAS discovery : advancing life sciences R & D, 2017).
Ends that are not written are not given here. * marks the point of attachment. Biotin = O=C1N[C@H]2[C@H](CS[C@H]2CCCCC(=O)*)N1

Target: Klebsiella pneumonia PriA protein fused to an N-terminal 6xHis purification tag (Klebsiella pneumonia, UniProt A6TGC5 1-731)
Assay: AlphaScreen or HTRF

Klebsiella pneumonia PriA protein fused to an N-terminal 6xHis purification tag, sequence (A6TGC5 whole entry, the tested form may be a part): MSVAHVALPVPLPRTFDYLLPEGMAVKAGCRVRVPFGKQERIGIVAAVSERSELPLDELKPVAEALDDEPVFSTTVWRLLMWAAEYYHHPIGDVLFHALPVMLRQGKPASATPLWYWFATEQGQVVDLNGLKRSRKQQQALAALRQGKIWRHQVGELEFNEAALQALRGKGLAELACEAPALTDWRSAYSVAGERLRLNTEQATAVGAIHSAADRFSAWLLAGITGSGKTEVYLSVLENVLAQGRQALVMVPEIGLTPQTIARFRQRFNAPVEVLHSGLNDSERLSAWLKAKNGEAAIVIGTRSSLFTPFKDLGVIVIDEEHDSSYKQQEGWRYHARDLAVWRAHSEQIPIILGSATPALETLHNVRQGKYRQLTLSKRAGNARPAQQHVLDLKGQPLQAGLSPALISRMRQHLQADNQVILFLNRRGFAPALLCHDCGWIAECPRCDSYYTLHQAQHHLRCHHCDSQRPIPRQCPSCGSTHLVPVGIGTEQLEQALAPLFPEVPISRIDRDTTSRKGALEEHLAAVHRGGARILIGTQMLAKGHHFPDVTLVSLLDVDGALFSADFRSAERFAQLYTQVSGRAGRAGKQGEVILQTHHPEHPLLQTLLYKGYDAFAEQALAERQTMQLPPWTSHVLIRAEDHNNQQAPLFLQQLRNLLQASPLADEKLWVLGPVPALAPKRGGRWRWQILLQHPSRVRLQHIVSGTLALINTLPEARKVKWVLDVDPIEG

B1: N-terminally biotinylated SSBct (peptide)
peptide: Biotin-WMDFDDDIPF
  binding result: binds
